Each block holds one binder with its values, some of them ahead of it.
Experiments:
[1] = molecular target: T1, hydrogenated KaiC, phosphorylation mimic S431D (Synechococcus elongatus PCC 7942, UniProt Q79PF4 1-519, S431D); assay: SEC; KaiB and KaiC mixed at a molar ratio of 12:6 and incubated at 303 K for 48 h; Superdex 200 Increase 10/300 GL, 0.5 mL/min; 98% D2O buffer with 50 mM sodium phosphate pH 7.8, 150 mM NaCl, 5 mM MgCl2, 0.5 mM EDTA, 1 mM DTT, 3 mM ATP, 50 mM glutamic acid, 50 mM arginine; details: both partners purified
T1 construct: Clock protein KaiC from Synechococcus elongatus PCC 7942, phosphorylation site S431 substituted with aspartate; KaiB and KaiC were mixed at a molar ratio of 12:6, and M from I(0) of hC alone is 334 ± 11 kDa; The buffer contained 3 mM ATP and 5 mM MgCl2; also called hC; h-KaiC; source: expressed and purified as previously described
T1 sequence (looked up): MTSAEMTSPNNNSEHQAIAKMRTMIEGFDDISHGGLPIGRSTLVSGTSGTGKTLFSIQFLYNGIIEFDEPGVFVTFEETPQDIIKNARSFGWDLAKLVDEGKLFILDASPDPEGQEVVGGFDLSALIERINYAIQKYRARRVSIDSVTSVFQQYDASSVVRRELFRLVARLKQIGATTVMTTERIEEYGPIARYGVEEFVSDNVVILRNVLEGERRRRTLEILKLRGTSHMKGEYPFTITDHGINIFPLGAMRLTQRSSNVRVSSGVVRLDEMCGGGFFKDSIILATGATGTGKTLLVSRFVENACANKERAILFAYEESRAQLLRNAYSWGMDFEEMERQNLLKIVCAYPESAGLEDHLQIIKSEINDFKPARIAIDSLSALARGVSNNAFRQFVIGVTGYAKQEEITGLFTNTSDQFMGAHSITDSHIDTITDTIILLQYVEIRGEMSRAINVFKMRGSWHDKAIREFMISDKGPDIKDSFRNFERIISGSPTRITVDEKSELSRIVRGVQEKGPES

[2] = molecular target: T1, hydrogenated KaiC, phosphorylation …; assay: SEC-SANS; BC complex fraction from SEC stored in the SANS cell (stopping mode), 298 K, 98% D2O clock protein buffer; compared with hC alone; details: both partners purified

binding result [1]: binds
B1: 71% deuterated KaiB (natural protein, Synechococcus elongatus PCC 7942, UniProt Q79PF5 1-102, looked up)
chain: MSPRKTYILKLYVAGNTPNSVRALKTLKNILEVEFQGVYALKVIDVLKNPQLAEEDKILATPTLAKVLPLPVRRIIGDLSDREKVLIGLDLLYGELQDSDDF
modifications: partially deuterated; degree of deuteration 71% (MALDI-TOF mass spectrometry)
notes: Clock protein KaiB from Synechococcus elongatus PCC 7942; also called 71dB; 71d-KaiB; source: bacterial cells grown in M9 minimal H2O/D2O mixture media with hydrogenated and deuterated glucose, purified

binding result [2]: binds
B2: hydrogenated KaiB (natural protein, Synechococcus elongatus PCC 7942, UniProt Q79PF5 1-102, looked up)
chain: B1 chain
notes: Clock protein KaiB from Synechococcus elongatus PCC 7942; also called hB; h-KaiB; source: expressed and purified as previously described

Reference: PMC11957415, “Size-exclusion chromatography–small-angle neutron scattering system optimized for an instrument with medium neutron flux” (Journal of Applied Crystallography, 2025)
